These results are taken from US20240002795A1 (published 2024).

Holding throughout (test): activation reporter or marker
Assay [1] concerns the target T1, RET M918T peptide on HLA-DPA1*01:03 / HLA-DPB1*04:01 (human).
T1 peptide: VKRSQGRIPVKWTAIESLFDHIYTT

Assay [2] addresses T2, RET wild type peptide on HLA-DPA1*01:03 / HLA-DPB1*04:01 (human).
T2 peptide: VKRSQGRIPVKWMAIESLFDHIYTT

Assay [3] has as its target T3, RET M918T peptide on HLA-DPA1*01:03 / HLA-DPB1*04:02 (human).
T3 peptide: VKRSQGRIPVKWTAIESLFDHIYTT

Assay [4] deals with T4, RET wild type peptide on HLA-DPA1*01:03 / HLA-DPB1*04:02 (human).
T4 peptide: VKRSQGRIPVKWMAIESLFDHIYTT

B1: TCR-ID-3 (TCR, V domains shown)
Valpha: DQQVKQNSPSLSVQEGRISILNCDYTNSMFDYFLWYKKYPAEGPTFLISISSIKDKNEDGRFTVFLNKSAKHLSLHIVPSQPGDSAVYFCAASGHGGSQGNLIFGKGTKLSVKP
Vbeta: GAGVSQSPRYKVAKRGQDVALRCDPISGHVSLFWYQQALGQGPEFLTYFQNEAQLDKSGLPSDRFFAERPEGSVSTLKIQRTQQEDSAVYLCASSLRFLGQGSYEQYFGPGTRLTVT
With B1, the binding result in assay [1] is listed as “recognises”; in assay [2] it was “no recognition”; in assay [3] it was “recognises”.

B2: TCR-ID-1 (TCR, V domains shown)
Valpha: GNSVTQMEGPVTLSEEAFLTINCTYTATGYPSLFWYVQYPGEGLQLLLKATKADDKGSNKGFEATYRKETTSFHLEKGSVQVSDSAVYFCALSENAGNQFYFGTGTSLTVIP
Vbeta: NAGVTQTPKFQVLKTGQSMTLQCAQDMNHEYMSWYRQDPGMGLRLIHYSVGAGITDQGEVPNGYNVSRSTTEDFPLRLLSAAPSQTSVYFCASSRGNTQYFGPGTRLTVL
Consider B2, for which the binding result is “recognises” in assay [1], “no recognition” in assay [2], “recognises” in assay [3] and “no recognition” in assay [4].

B3: TCR-ID-2 (TCR, V domains shown)
Valpha: AQKITQTQPGMFVQEKEAVTLDCTYDTSDQSYGLFWYKQPSSGEMIFLIYQGSYDEQNATEGRYSLNFQKARKSANLVISASQLGDSAMYFCAMREGDGDDMRFGAGTRLTVKP
Vbeta: EPEVTQTPSHQVTQMGQEVILRCVPISNHLYFYWYRQILGQKVEFLVSFYNNEISEKSEIFDDQFSVERPDGSNFTLKIRSTKLEDSAMYFCASSSQIQTVMNTEAFFGQGTRLTVV
Take B3: the binding result is reported as “recognises” in assay [1], “no recognition” in assay [2], “recognises” in assay [3] and “no recognition” in assay [4].
